Tested on: p16

CDK2
RB phosphorylation by CDK2-cyclin D2 complexes: No inhibition was observed when CDK2-cyclin D2 complexes were used in a similar assay

— patent US20030100489
